Data on two molecules can be found in US20030215838A1.

The target in assay [1] is human zcytor17, OSMRbeta and WSX-1 co-expressed on transfected cells (human). Put plainly: cell-based or functional assay.
Assay [2] addresses human zcytor17 and OSMRbeta co-expressed on transfected cells (human). Put plainly: cell-based or functional assay.
Assay [3] addresses human zcytor17 receptor, full length, on transfected cells (human). Kind of assay: flow cytometry; biotinylated zcytor17L at 0.010 µg/mL on BHK cells with zcytor17 alone, SA-PE. For orientation: A flow cytometer gives signals particle by particle.
The target in assay [4] is human OSMRbeta, full length, on transfected cells (human). Kind of assay: flow cytometry; no ligand (0.0 µg/mL, background) on BHK cells with OSMRbeta alone, SA-PE.
For assay [5], the target named is human zcytor17 receptor, full length, on transfected cells (human). Kind of assay: flow cytometry; biotinylated zcytor17L at 0.00001 µg/mL on BHK cells with zcytor17 alone, SA-PE.
Assay [6] has the same target. Kind of assay: flow cytometry; biotinylated zcytor17L at 0.000001 µg/mL on BHK cells with zcytor17 alone, SA-PE.
For assay [7] the target is unchanged. Put plainly: flow cytometry; biotinylated zcytor17L at 10.0 ng/mL on BAF3 cells with zcytor17 alone, SA-PE.
Assay [8] addresses human OSMRbeta, full length, on transfected cells (human). Kind of assay: flow cytometry; biotinylated zcytor17L at 2.0 µg/mL on BHK cells with OSMRbeta alone, SA-PE.
Assay [9] has the same target. Kind of assay: flow cytometry; biotinylated zcytor17L at 0.04 µg/mL on BAF3 cells with OSMRbeta alone, SA-PE.
Assay [10] addresses human zcytor17 and OSMRbeta co-expressed on transfected cells (human). Kind of assay: flow cytometry; no ligand (0.0 µg/mL, background) on BHK cells with zcytor17 + OSMRbeta, SA-PE.
The target is the same in assay [11]. Put plainly: flow cytometry; biotinylated zcytor17L at 0.001 µg/mL on BHK cells with zcytor17 + OSMRbeta, SA-PE.
Assay [12] deals with human zcytor17 receptor, full length, on transfected cells (human). Kind of assay: flow cytometry; biotinylated zcytor17L at 0.0001 µg/mL on BHK cells with zcytor17 alone, SA-PE.
Assay [13] shares this target. Kind of assay: flow cytometry; biotinylated zcytor17L at 0.100 µg/mL on BHK cells with zcytor17 alone, SA-PE.
Assay [14] shares this target. Put plainly: flow cytometry; no ligand (0.0 ng/mL, background) on BAF3 cells with zcytor17 alone, SA-PE.
Assay [15] concerns the target human zcytor17 and OSMRbeta co-expressed on transfected cells (human). Put plainly: flow cytometry; biotinylated zcytor17L at 0.12 µg/mL on BAF3 cells with zcytor17 + OSMRbeta, SA-PE.
Assay [16] addresses human OSMRbeta, full length, on transfected cells (human). Kind of assay: flow cytometry; biotinylated zcytor17L at 0.37 µg/mL on BAF3 cells with OSMRbeta alone, SA-PE.
In assay [17] the target is human zcytor17 receptor, full length, on transfected cells (human). Put plainly: flow cytometry; biotinylated zcytor17L at 100.0 ng/mL on BAF3 cells with zcytor17 alone, SA-PE.
Assay [18] deals with human zcytor17 and OSMRbeta co-expressed on transfected cells (human). Put plainly: flow cytometry; biotinylated zcytor17L at 0.37 µg/mL on BAF3 cells with zcytor17 + OSMRbeta, SA-PE.
Assay [19] addresses human zcytor17 receptor, full length, on transfected cells (human). Put plainly: flow cytometry; biotinylated zcytor17L at 2.0 µg/mL on BHK cells with zcytor17 alone, SA-PE.
The target in assay [20] is human zcytor17 and OSMRbeta co-expressed on transfected cells (human). Kind of assay: flow cytometry; biotinylated zcytor17L at 2.0 µg/mL on BHK cells with zcytor17 + OSMRbeta, SA-PE.
Assay [21] has the same target. Put plainly: flow cytometry; biotinylated zcytor17L at 0.000001 µg/mL on BHK cells with zcytor17 + OSMRbeta, SA-PE.
Assay [22] concerns the target human OSMRbeta, full length, on transfected cells (human). Put plainly: flow cytometry; biotinylated zcytor17L at 3.33 µg/mL on BAF3 cells with OSMRbeta alone, SA-PE.
Assay [23] deals with human zcytor17 and OSMRbeta co-expressed on transfected cells (human). Kind of assay: flow cytometry; biotinylated zcytor17L at 0.0001 µg/mL on BHK cells with zcytor17 + OSMRbeta, SA-PE.
Assay [24] deals with human zcytor17 receptor, full length, on transfected cells (human). Kind of assay: flow cytometry; biotinylated zcytor17L at 1.0 ng/mL on BAF3 cells with zcytor17 alone, SA-PE.
Assay [25] concerns the target human OSMRbeta, full length, on transfected cells (human). Kind of assay: flow cytometry; biotinylated zcytor17L at 1.11 µg/mL on BAF3 cells with OSMRbeta alone, SA-PE.
In assay [26] the target is human zcytor17 and OSMRbeta co-expressed on transfected cells (human). Put plainly: flow cytometry; biotinylated zcytor17L at 10.0 µg/mL on BAF3 cells with zcytor17 + OSMRbeta, SA-PE.
Assay [27] has the same target. Put plainly: flow cytometry; biotinylated zcytor17L at 1.11 µg/mL on BAF3 cells with zcytor17 + OSMRbeta, SA-PE.
Assay [28] shares this target. Kind of assay: flow cytometry; biotinylated zcytor17L at 3.33 µg/mL on BAF3 cells with zcytor17 + OSMRbeta, SA-PE.
The target of assay [29] is human OSMRbeta, full length, on transfected cells (human). Put plainly: flow cytometry; biotinylated zcytor17L at 0.12 µg/mL on BAF3 cells with OSMRbeta alone, SA-PE.
Assay [30] deals with human zcytor17 and OSMRbeta co-expressed on transfected cells (human). Put plainly: flow cytometry; biotinylated zcytor17L at 0.04 µg/mL on BAF3 cells with zcytor17 + OSMRbeta, SA-PE.
For assay [31] the target is unchanged. Kind of assay: flow cytometry; biotinylated zcytor17L at 0.010 µg/mL on BHK cells with zcytor17 + OSMRbeta, SA-PE.
Assay [32] addresses human zcytor17 receptor, full length, on transfected cells (human). Put plainly: flow cytometry; no ligand (0.0 µg/mL, background) on BHK cells with zcytor17 alone, SA-PE.
Assay [33] concerns the target human zcytor17 and OSMRbeta co-expressed on transfected cells (human). Kind of assay: flow cytometry; no ligand (0.00 µg/mL, background) on BAF3 cells with zcytor17 + OSMRbeta, SA-PE.
The target of assay [34] is human zcytor17 receptor, full length, on transfected cells (human). Put plainly: flow cytometry; biotinylated zcytor17L at 0.001 µg/mL on BHK cells with zcytor17 alone, SA-PE.
In assay [35] the target is human OSMRbeta, full length, on transfected cells (human). Kind of assay: flow cytometry; biotinylated zcytor17L at 10.0 µg/mL on BAF3 cells with OSMRbeta alone, SA-PE.
Assay [36] concerns the target human zcytor17 and OSMRbeta co-expressed on transfected cells (human). Put plainly: flow cytometry; biotinylated zcytor17L at 0.100 µg/mL on BHK cells with zcytor17 + OSMRbeta, SA-PE.
Assay [37] shares this target. Put plainly: flow cytometry; biotinylated zcytor17L at 0.00001 µg/mL on BHK cells with zcytor17 + OSMRbeta, SA-PE.
Assay [38] has as its target human OSMRbeta, full length, on transfected cells (human). Kind of assay: flow cytometry; no ligand (0.00 µg/mL, background) on BAF3 cells with OSMRbeta alone, SA-PE.

As to “human zcytor17lig (untagged, in conditioned media) (ligand)”, in [1], the proliferation of BaF3/zcytor17/WSX-1/OSMRbeta cells, Alamar Blue (activated CCRF-CEM and CCRF-HSB2 conditioned media) (fold over background) turned out to be 10; the proliferation of BaF3/zcytor17/WSX-1/OSMRbeta cells, Alamar Blue (activated CD3+ selected human cell conditioned media) (fold over background) came out at 15. In [2], the proliferation of BaF3/zcytor17/OSMRbeta cells, Alamar Blue (activated CCRF-CEM and CCRF-HSB2 conditioned media) (fold over background) came to 10; the proliferation of BaF3/zcytor17/OSMRbeta cells, Alamar Blue (activated CD3+ selected human cell conditioned media) (fold over background) amounted to 15.

B1: biotinylated human zcytor17 ligand (ligand)
chain: LPVRLLRPSDDVQKIVEELQSLSKMLLKDVEEEKGVLVSQNYTLPCLSPDAQPPNNIHSPAIRAYLKTIRQLDNKSVIDEIIEHLDKLIFQDAPETNISVPTDTHECKRFILTISQQFSECMDLALKSLTSGAQQATT
modifications: biotin
With B1, the mean fluorescent intensity (MFI) was determined as 244 in [3]; 0 in [4]; 15 in assay [5]; 14 in assay [6]; 72 in assay [7]; 13 in [8]. Further, the mean fluorescent intensity (MFI) in assay [9] was determined as 5; in [10] it was 13; in assay [11] it was 53; in assay [12] it was 16; in [13] it was 1600; in assay [14], 7. The mean fluorescent intensity (MFI) in assay [15] came to 364; in assay [16] it was 5; in assay [17], 347; in [18], 441; in [19], 3030; in assay [20] it was 3780. Besides, the mean fluorescent intensity (MFI) in assay [21] came out at 14; in assay [22], 5; in [23], 17; in assay [24] it was 17; in assay [25], 5; in assay [26], 531. The mean fluorescent intensity (MFI) was 489 in assay [27]; 508 in [28]; 5 in assay [29]; 247 in [30]; 328 in assay [31]; 15 in [32]. Besides, the mean fluorescent intensity (MFI) in [33] is 7; in assay [34] it was 39; in [35] it was 6; in assay [36], 2130; in assay [37], 15; in [38], 11.
